Target: T1, His-tagged KEAP1 (C-terminal amino acids 312-624, containing the Kelch domain) (human, UniProt Q14145 312-624)
T1 construct: plasmid by Tsingke Biotechnology; also called His-KEAP1; Kelch domain of KEAP1; source: E. coli BL21 (DE3), purified (Ni-NTA column, gel filtration)
Assay: pull-down; His pulldown, competition: 10 µg His-KEAP1 on His immunomagnetic beads, mixed with NRF2 and 5 or 10 µg DDRGK1 protein at 4 °C overnight, washed three times, immunoblot
Settings: both partners purified

T1 sequence (Q14145 312-624): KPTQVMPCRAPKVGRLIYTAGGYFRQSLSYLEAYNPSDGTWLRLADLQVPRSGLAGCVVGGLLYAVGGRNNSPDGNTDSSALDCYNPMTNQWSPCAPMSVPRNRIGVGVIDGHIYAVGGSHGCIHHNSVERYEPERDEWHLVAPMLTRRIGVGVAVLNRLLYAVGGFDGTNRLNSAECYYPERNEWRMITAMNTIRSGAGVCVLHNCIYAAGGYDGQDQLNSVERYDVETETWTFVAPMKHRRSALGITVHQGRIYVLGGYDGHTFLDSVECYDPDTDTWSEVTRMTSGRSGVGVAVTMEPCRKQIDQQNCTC

B1: GST-tagged NRF2 (N-terminal amino acids 1-84, containing domains interacting with KEAP1) (domain or fragment, human, UniProt Q16236 1-84, looked up)
chain: MMDLELPPPGLPSQQDMDLIDILWRQDIDLGVSREVFDFSQRRKEYELEKQKKLEKERQEQLQKEQEKAFFAQLQLDEETGEFL
notes: N-terminal domain (residues 1-84) of human NRF2; plasmid by Tsingke Biotechnology; also called GST-NRF2; NRF2 protein; source: E. coli BL21 (DE3), purified (GSH column, gel filtration)
  binding result: binds

Source: article PMC10190621 (Advanced Science, 2023)
